{
  "source": "paper PMC2171992",
  "key": {"muscle actin [1]": {"target": "muscle actin (UniProt P68135)", "assay": "seeded actin assembly kinetics"}, "muscle actin [2]": {"target": "muscle actin (UniProt P68135)", "assay": "apparent critical concentration for actin polymerization at steady state"}},
  "data": [
    {"substance": "Cap1 C-30, synthetic peptide corresponding to the Cap1 COOH-terminal 30 residues, 239–268 (from UniProt P28495 239-268)", "values": [
      {"measurement": "Kd of capping (barbed end; fit with capping and monomer binding)", "setting": "muscle actin [1]", "value": 1.71, "unit": "µM"},
      {"measurement": "Kd of monomer binding (fit with capping and monomer binding)", "setting": "muscle actin [1]", "value": 2.86, "unit": "µM"},
      {"measurement": "k+2 of capping (barbed end; fit with capping and monomer binding)", "setting": "muscle actin [1]", "value": 2100, "unit": "M⁻¹ s⁻¹"}
    ]},
    {"substance": "Cap1Δ(239–268)/Cap2 (from UniProt P28495 1-238; P13517 1-287) (complex)", "values": [
      {"measurement": "Kd", "setting": "muscle actin [2]", "value": "> 50", "unit": "µM"},
      {"measurement": "Kd", "setting": "muscle actin [1]", "value": 10.3, "unit": "µM"},
      {"measurement": "koff", "setting": "muscle actin [1]", "value": 0.00233, "unit": "s⁻¹"}
    ]}
  ]
}
